Reference: the Human Domainome abundance scans (Beltran et al. 2025)

B1: COUP transcription factor 1, residues 83 to 159; numbered along this chain, P10589 (parent)
chain: HIECVVCGDKSSGKHYGQFTCEGCKSFFKRSVRRNLTYTCRANRNCPIDQHHRNQCQYCRLKKCLKVGMRREAVQRG

Variants of: B1
Assay: abundance fitness (aPCA) (normalised: wild type 0, dead -1); higher = more abundant; growth selection in yeast, the domain comes from the species named
Details: Homo sapiens

Abundance fitness: each site, then its substitutions
F28: D -0.991 | K -0.419 | V -0.807 | M -0.591 | P -1.04 | Y -0.42 | C -0.757 | G -1.05 | Q -0.809 | L -0.754 | E -0.539 | W -0.069 | R -0.698 | T -1.2 | A -0.809 | S -0.813
T37: R 0.092 | A 0.085 | F -0.101 | V 0.044 | I -0.038 | Y -0.254 | K 0.139 | W 0.138 | E 0.178 | N 0.081 | C -0.048 | M -0.215 | Q -0.104 | H 0.133 | S -0.009 | L -0.057 | G 0.06
F27: N -0.222 | H -0.634 | E -0.519 | G -0.83 | W -0.733 | T -1.1 | R -0.515 | K -0.968 | V -0.692 | L -0.819 | D -0.783 | S -0.815 | Y -0.61 | I -0.86 | Q -0.739 | A -0.812
A42: Q 0.239 | K 0.002 | R -0.111 | L 0 | F -0.282 | S 0.047 | Y 0.109 | V 0.09 | W -0.123 | E 0.084 | H -0.068 | T -0.256 | N -0.45 | G 0.217
K25: R 0.095 | M 0.177 | S 0.067 | P -0.492 | W 0.003 | T 0.011 | V 0.025
N43: W 0.015 | P -0.256 | R 0.012 | Y -0.374 | E 0.227 | I -0.335 | L -0.054 | A 0.152 | T -0.051 | Q 0.027 | S 0.011 | K 0.018 | M -0.222 | G 0.051 | F -0.22 | V 0.128 | H -0.319 | D 0.278
K29: A -0.079 | S -0.058 | E 0.103 | G 0.068 | L -0.186 | T 0.026 | F -0.147 | I -0.22 | P -0.534 | N -0.01 | D 0.153 | C -0.705 | W -0.149 | H -0.048 | Q 0.03 | R -0.181 | M -0.055 | V 0.013
S26: R -0.019 | G 0.238 | L -0.035 | D -0.32 | F -0.275 | H -0.137 | W 0.014 | C -0.127 | K 0.321 | P -0.812 | E 0.144 | M 0.298 | Q 0.247 | I -0.611 | T 0.139 | A -0.184 | V 0.088
R30: Q -0.411 | N -0.028 | H -0.359 | E 0.054 | Y -0.186 | A -0.091 | C 0.067 | S -0.157 | G -0.079 | K 0.389 | L -0.195 | V 0.08
C46: L -0.492 | R -0.602 | H -0.536 | S -0.604 | V -0.433 | Q -0.18 | D -0.572 | I -0.267 | A -0.519 | P -0.587 | W -0.779 | K -0.624 | F -0.501 | M -0.654 | E -0.229
N45: R 0.067 | L -0.322 | G -0.004 | D -0.035 | S 0.061 | Q 0.13 | H -0.182 | P 0.015 | V -0.058 | A -0.076 | C -0.202 | K -0.265 | Y -0.595 | M -0.245 | E -0.025 | W -0.049
C40: S -1.08
